Tested on: adult hippocampus-derived neural progenitor cells
Test: in vitro differentiation analysis of neural progenitor cells (immunocytochemistry for lineage markers)
Format: cell-based, rat
Protocol: The neural progenitor cells isolated from the hippocampus of female Fischer 344 used in this study have been characterized previously (Gage et al., 1995; Palmer et al., 1997). The whole brain-derived neural stem cells from PIO ICR mice were isolated and cultured according to the methods as described, with slight modifications. Cells were cultured as previously described (Gage et al., 1995; Ray et al., 1993). Cells between passages 10 and 20 were used for in vitro differentiation analyses. To induce differentiation, cells were plated into 4-well chamber slides at a density of 55,000-75,000 cells per well and were allowed to proliferate in N2-supplemented (Invitrogen) DMEM:F12 (Omega Scientific) medium containing 20 ng/ml FGF-2 (PeproTech, Inc.) for 24 hours. FGF-2 was then withdrawn and cells were subsequently treated with differentiation media. […] For IGF-induction experiments, cells were trypsinized, washed with 1× PBS, and plated into insulin-free N2 medium. […] In some cultures, BrdU (2.5 μM, Sigma) was added to label dividing cells, and Q-VD-OPh (2 μM, Enzyme Systems Products) was added to prevent apoptosis.
Cells were fixed with 4% paraformaldehyde, followed by immunocytochemical staining as described (Palmer et al., 1999). Labeled cells were visualized using a Nikon E800 upright microscope or a Nikon E600 inverted microscope (Nikon Inc.) and a Spot RT CCD camera (Diagnostic Instruments Inc.). 4′,6-diamidino-2-phenylindole (DAPI) was used to identify individual cells. Quantification of cell phenotypes was with StereoInvestigator (MicroBrightfield Inc.); for each marker, 500-1000 cells were sampled systematically from standardized fields at 40×magnification. For quantification of live/dead cells, images were taken of cultures live-stained with propidum iodide (1 μg/ml; Molecular Probes) and Hoescht 33342 (1 μg/ml; Sigma) at 10×magnification, and cells were counted using Image-Pro (Media Cybernetics). The following primary antibodies were used: rabbit anti-Tuj1 (1:7500;Covance), mouse anti-RIP (1:25-1:75; Hybridoma Bank); guinea pig anti-GFAP (1:500-1:2500; Advanced Immunochemical, Inc.); rabbit anti-MBP (1:500; Chemicon International Inc.), rat anti-BrdU (1:400; Accurate). Secondary antibodies were all from Jackson ImmunoResearch and used at 1:250 dilution. The detection of BrdU in cultured cells required treatment in 2 N HCL at 37° C. for 30 min (Palmer et al., 1999). All experiments were independently replicated at least 3 times.

B1: Noggin: extracellular protein that binds BMP ligands, BMP antagonist (protein, UniProt Q13253 28-232, looked up)
Noggin: QHYLHIRPAPSDNLPLVDLIEHPDPIFDPKEKDLNETLLRSLLGGHYDPGFMATSPPEDRPGGGGGAAGGAEDLAELDQLLRQRPSGAMPSEIKGLEFSEGLAQGKKQRLSKKLRRKLQMWLWSQTFCPVLYAWNDLGSRFWPRYVKVGSCFSKRSCSVPEGMVCKPSKSVHLTVLRWRCQRRGGQRCGWIPIQYPIISECKCSC
differentiation or survival effects of Noggin alone (500 ng/ml Noggin alone, insulin-free media): did not display any enhanced differentiation or survival effects
reversal of BMP2 inhibition of oligodendrocyte differentiation (Noggin 500 ng/ml with BMP2 50 ng/ml and IGF-I 500 ng/ml): efficiently reversed the inhibitory effects of BMP signaling
percentage of oligodendrocytes vs IGF-I alone (Noggin 500 ng/ml with IGF-I 20-100 ng/ml): significant increase in the percentage of oligodendrocytes
percentage of RIP+ oligodendrocytes vs IGF-I alone (Noggin 500 ng/ml with IGF-I 500-1000 ng/ml): did not result in a significant change
